This is an account of results in article PMC9278102.

One test concerns the target hACE2-fc dimer (human) (UniProt Q9BYF1). The experiment in a line: SPR. For orientation: SPR reads the build-up and loss of mass on a sensor chip optically.
Test [1] deals with SARS-CoV-2 S1-S2-His-T4 trimer (SARS-CoV-2 (wt; Wuhan strain)). In words: SEC. Background: Size exclusion chromatography separates by hydrodynamic size, large species first.

One may read the Kd as the constant that tells how readily two partners part at equilibrium. A lower Kd goes with higher affinity. What is called stoichiometry N is the number of molecules, sites or subunits per partner or assembly.

Sequence of UniProt Q9BYF1 (Q9BYF1 18-740): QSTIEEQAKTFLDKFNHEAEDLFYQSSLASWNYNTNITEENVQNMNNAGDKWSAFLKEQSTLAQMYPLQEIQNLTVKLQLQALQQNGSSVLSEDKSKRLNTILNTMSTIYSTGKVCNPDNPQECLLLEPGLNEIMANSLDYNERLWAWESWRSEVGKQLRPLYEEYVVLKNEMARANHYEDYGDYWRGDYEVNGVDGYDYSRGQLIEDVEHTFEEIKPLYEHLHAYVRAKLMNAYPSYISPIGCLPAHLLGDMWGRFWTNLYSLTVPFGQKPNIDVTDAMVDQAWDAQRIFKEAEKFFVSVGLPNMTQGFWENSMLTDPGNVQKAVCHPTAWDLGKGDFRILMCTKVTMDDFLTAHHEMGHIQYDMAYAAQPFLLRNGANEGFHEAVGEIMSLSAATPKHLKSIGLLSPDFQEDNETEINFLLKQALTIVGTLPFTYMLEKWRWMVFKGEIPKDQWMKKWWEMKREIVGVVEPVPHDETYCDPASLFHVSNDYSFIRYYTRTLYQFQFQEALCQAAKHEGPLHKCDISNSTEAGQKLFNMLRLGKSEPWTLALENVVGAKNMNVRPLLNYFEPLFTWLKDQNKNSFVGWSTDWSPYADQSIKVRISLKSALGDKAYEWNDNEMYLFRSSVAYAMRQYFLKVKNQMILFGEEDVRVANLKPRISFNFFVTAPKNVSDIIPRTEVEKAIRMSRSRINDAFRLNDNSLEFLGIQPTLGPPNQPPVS

Take “SARS-CoV-2 S1-S2-His-T4 trimer (domain or fragment)”: in the test with hACE2-fc dimer (human), the KD1 (two-state fit, primary binding) was 1.8 nM; the Kd amounted to 0.04 nM; the ka1 (two-state fit, primary binding) turned out to be 780000 M⁻¹ s⁻¹; the ka2 (two-state fit, secondary transition) stood at 0.011 M⁻¹ s⁻¹. Further, in the test with hACE2-fc dimer (human), the kd1 (two-state fit, primary binding) came to 0.0014 s⁻¹ and the kd2 (two-state fit, secondary transition) amounted to 0.00024 s⁻¹. In test [1], this substance gave a stoichiometry N of 3.
